In paper PMC2682783:

Tests used:
[1] = biological target: urea transporter ApUT from Actinobacillus pleuropneumoniae (Actinobacillus pleuropneumoniae); experiment: native gel or EMSA
[2] = biological target: urea transporter ApUT from Actinobacillus pleuropneumoniae (Actinobacillus pleuropneumoniae); experiment: cross-linking
[3] = biological target: urea transporter ApUT from Actinobacillus pleuropneumoniae (Actinobacillus pleuropneumoniae); experiment: electron microscopy of negatively stained 2D crystals

Measured: stoichiometry N

urea transporter ApUT from Actinobacillus pleuropneumoniae (from UniProt A0A2Z6AQW9 1-300) (natural protein)
2: all assays above
